Source: the supplement of paper PMC10126150
± gives the standard deviation of the averaged measurements.

Each sequence was assayed on ATP (assay: switch fluorescence ratio, 500 uM ATP over buffer (Cy3 cluster intensity, sum of 5 cycles each) (fold (ratio)); higher = stronger signal-on switching upon ATP binding; sequences stand for … in TCGTCGGCAGCGTCAGATGTGTATAAGAGACAGTTTTTTTTTTTTTTTTTTTTTTTTT…TC). Details: aptamer strand: ATP DNA aptamer (quencher-CACCTGGGGGAGTATTGCGGAGGAAGG + anchor), 100 nM annealed; ATP concentration: 500 uM.
How it was run: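 The quencher-labelled ATP aptamer, at 100 nM, was annealed to Cy3-labelled switching-strand clusters on a modified Illumina MiSeq flow-cell. The clusters were imaged in selection buffer, then after 15 min with 500 uM ATP at 22 °C, and this buffer/ATP cycle ran five times with NaOH stripping and re-annealing between runs. Per-cluster fluorescence ratios, summed target-cycle over summed buffer-cycle Cy3 intensity, were averaged per switch-domain sequence. Clusters outside 100-1000 RFU were excluded.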
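Further: ATP exposure 15 min at 22 °C before imaging.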

Sequence	switch fluorescence ratio
AGGATGGAGT	0.987 ± 0.031
AGGATGGGGT	0.966 ± 0.017
AGGATGTTGG	0.993 ± 0.026
AGGATTAAGG	0.992 ± 0.018
AGGATTAGGA	1.01 ± 0.062
AGGATTGTGT	0.9523 ± 0.0032
AGGATTTAAG	1.05 ± 0.022
AGGATTTCGT	1.008 ± 0.0068
AGGCAGACTT	1.004 ± 0.0089
AGGCAGGACT	1.02 ± 0.044
AGGCAGTCCA	1.003 ± 0.0065
AGGCCACCTT	1.04 ± 0.023
AGGCCCATGT	1.02 ± 0.012
AGGCCCCCCA	1.328 ± 0.013
AGGCCCGTTT	1.02 ± 0.029
AGGCCCTAAG	1.01 ± 0.017
AGGCCGGCTG	0.96 ± 0.066
AGGCCTCAGG	0.99 ± 0.022
AGGCGGACTG	1.02 ± 0.13
AGGCGGATGT	0.978 ± 0.016
AGGCGGGCAG	1.039 ± 0.004
AGGCGGGCGG	0.959 ± 0.019
AGGCGTTTAG	1.03 ± 0.059
AGGCTACATA	1.03 ± 0.019
AGGCTACCGT	1.0254 ± 0.001
AGGCTAGGAG	0.994 ± 0.053

Sequence	switch fluorescence ratio
AGGCTCCTCT	1.02 ± 0.025
AGGCTCGGGG	1.04 ± 0.026
AGGCTCTAAG	1.01 ± 0.011
AGGCTCTTAT	1.03 ± 0.049
AGGCTGCATG	1.01 ± 0.021
AGGCTGTTTT	1.02 ± 0.016
AGGCTTAGGG	1.03 ± 0.022
AGGCTTATAT	1.01 ± 0.024
AGGCTTATTT	1 ± 0.023
AGGCTTGTTT	0.996 ± 0.015
AGGGAAAAGA	1.03 ± 0.031
AGGGAAATCG	0.979 ± 0.037
AGGGAAGTTG	1.01 ± 0.07
AGGGAGGTTT	0.944 ± 0.073
AGGGAGTATG	1.01 ± 0.023
AGGGAGTGGG	0.968 ± 0.027
AGGGAGTTTT	1.01 ± 0.026
AGGGATAAAA	1.02 ± 0.055
AGGGATAAGC	0.988 ± 0.021
AGGGATAATT	0.975 ± 0.027
AGGGATAGTT	0.992 ± 0.0047
AGGGATCTGC	0.966 ± 0.028
AGGGATGGGG	0.976 ± 0.016
AGGGATGGTA	1.006 ± 0.0083
AGGGATTTGT	1.028 ± 0.003
AGGGATTTTT	0.999 ± 0.011

Sequence	switch fluorescence ratio
AGGGCAAACG	1.05 ± 0.0075
AGGGCAACTG	1.07 ± 0.079
AGGGCAGCTT	1.06 ± 0.025
AGGGCATTCT	0.9837 ± 0.0017
AGGGCCGTAT	1.04 ± 0.056
AGGGCCTTAG	0.9733 ± 0.009
AGGGCGACAG	1.01 ± 0.012
AGGGCGGGTG	1.047 ± 0.0095
AGGGCGGTGT	0.991 ± 0.027
AGGGCGTCTA	1.015 ± 0.003
AGGGCGTCTC	0.981 ± 0.043
AGGGCGTTAG	1.01 ± 0.044
AGGGCTATTT	0.973 ± 0.01
AGGGCTGATA	1.009 ± 0.0013
AGGGCTGCCC	1 ± 0.021
AGGGCTGCGT	0.984 ± 0.017
AGGGCTGGGG	0.973 ± 0.019
AGGGCTTAGA	0.9905 ± 0.0033
AGGGGAAAAC	1.03 ± 0.044
AGGGGAAGGA	1 ± 0.049
AGGGGAATGG	0.997 ± 0.015
AGGGGACGAC	1.02 ± 0.027
AGGGGACGCC	0.9928 ± 0.0049
AGGGGACTAT	1 ± 0.013
